One assay addresses T1, human GPC3 (human, UniProt P51654 25-563).
T1 construct: range 25-563; soluble analyte; also called soluble human GPC3; glypican 3
Description: SPR.

In assay [1] the target is T2, soluble human CD3 epsilon chain (human, UniProt P07766 23-126).
T2 construct: also called CD3ε
Description: SPR. (In general: SPR reads the build-up and loss of mass on a sensor chip optically.)

Changes are numbered by the printed parent chain.

T1 sequence (P51654 25-563 limits assumed): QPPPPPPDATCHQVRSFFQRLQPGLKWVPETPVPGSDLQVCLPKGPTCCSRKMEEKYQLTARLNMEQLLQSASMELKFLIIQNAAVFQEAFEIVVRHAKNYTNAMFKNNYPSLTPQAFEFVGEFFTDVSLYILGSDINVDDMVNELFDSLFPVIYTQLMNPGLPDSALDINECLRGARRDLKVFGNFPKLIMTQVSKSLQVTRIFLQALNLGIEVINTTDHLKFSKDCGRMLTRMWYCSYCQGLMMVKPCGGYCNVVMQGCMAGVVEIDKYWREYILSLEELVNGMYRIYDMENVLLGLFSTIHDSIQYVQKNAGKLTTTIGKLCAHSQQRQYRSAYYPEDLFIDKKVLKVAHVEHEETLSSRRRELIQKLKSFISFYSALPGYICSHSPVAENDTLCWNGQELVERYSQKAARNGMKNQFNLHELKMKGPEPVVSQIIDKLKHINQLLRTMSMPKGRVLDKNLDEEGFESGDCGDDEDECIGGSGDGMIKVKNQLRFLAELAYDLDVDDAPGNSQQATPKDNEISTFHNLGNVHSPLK
T2 sequence (P07766 23-126 limits assumed): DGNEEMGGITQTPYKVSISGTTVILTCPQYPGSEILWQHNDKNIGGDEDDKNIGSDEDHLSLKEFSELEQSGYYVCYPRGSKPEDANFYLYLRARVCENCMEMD

B1: GCH099-G1dh/none-Hi-Kn010G3/L0011-k0 (antibody, V domains shown)
VH: QVQLVQSGAEVKKPGASVTVSCKASGYTFTDYEMHWVRQAPGEGLEWMGAIDGWTPDTAYSEKFKGRVTLTADKSTSTAYMELSSLTSEDTAVYYCTRFYSYTYWGQGTLVTVSS
VL: DIVMTQSPLSLPVTPGEPASISCRSSQPLVHSNRNTYLHWYQQKPGQAPRLLIYKVSNRFSGVPDRFSGSGSGTDFTLKISRVEAEDVGVYYCGQGTQVPYTFGQGTKLEIKR
notes: one-arm
Broadly, the Kd is the equilibrium constant for the complex coming apart. Lower therefore signals higher affinity. B1 displayed a dissociation constant Kd with human GPC3 of 2.78 nM.

B2: H0610-G1dh/none-Hi-Kn010G3/L0000vk1-k0 (antibody, V domains shown)
VH: B1 VH with T19K, V37I, A40P, E43Q, M48I, W54K, E62Q
VL: DIQMTQSPSSLSASVGDRVTITCRSSQSLVHSNRNTYLHWYQQKPGKAPKLLIYKVSNRFSGVPSRFSGSGSGTDFTFTISSLQPEDIATYYCGQGTQVPYTFGQGTKVEIK
notes: one-arm
Consider B2, for which the affinity with human GPC3, expressed as Kd, was 2.16 nM.

B3: H0610-G1dh/none-Hi-Kn010G3/L0209-k0 (antibody, V domains shown)
VH: B1 VH with T19K, V37I, A40P, E43Q, M48I, W54K, E62Q
VL: B1 VL with P28S, L29P, L38I, G94Y
notes: one-arm
On to B3, for which, in the assay with human GPC3, the Kd worked out at 1.12 nM.

B4: H0610-G1dh/none-Hi-Kn010G3/L0211-k0 (antibody, V domains shown)
VH: B1 VH with T19K, V37I, A40P, E43Q, M48I, W54K, E62Q
VL: B1 VL with L29P, G94Y
notes: one-arm
Consider B4, for which the equilibrium dissociation constant (Kd) with human GPC3 worked out at 0.647 nM.

B5: GCH099-G1dh/none-Hi-Kn010G3/L0201-k0 (antibody, V domains shown)
VH: B1 VH
VL: B1 VL with L29P
notes: one-arm
B5 registered a dissociation constant (Kd) with human GPC3 of 1.29 nM.

B6: GCH100-G1dh/none-Hi-Kn010G3/L0000-k0 (antibody, V domains shown)
VH: B1 VH with W54Y
VL: B1 VL with P28S
notes: one-arm
On to B6, for which, in the assay with human GPC3, the Kd amounted to 5.39 nM.

B7: H0610-G1dh/none-Hi-Kn010G3/L0203-k0 (antibody, V domains shown)
VH: B1 VH with T19K, V37I, A40P, E43Q, M48I, W54K, E62Q
VL: B1 VL with P28S, L29P, L38I
notes: one-arm
As for B7, in the assay with human GPC3, the equilibrium dissociation constant (Kd) amounted to 2.11 nM.

B8: H0610-G1dh/none-Hi-Kn010G3/L0201-k0 (antibody, V domains shown)
VH: B1 VH with T19K, V37I, A40P, E43Q, M48I, W54K, E62Q
VL: B1 VL with L29P
notes: one-arm
B8 returned a Kd with human GPC3 of 1.13 nM.

B9: H0610-G1dh/none-Hi-Kn010G3/L0222-k0 (antibody, V domains shown)
VH: B1 VH with T19K, V37I, A40P, E43Q, M48I, W54K, E62Q
VL: B1 VL with P28S, L29P, L38I, H39Q, G94Y
notes: one-arm
For the molecule B9, the Kd with human GPC3 was determined as 0.00014 nM.

B10: H0610-G1dh/none-Hi-Kn010G3/L0208-k0 (antibody, V domains shown)
VH: B1 VH with T19K, V37I, A40P, E43Q, M48I, W54K, E62Q
VL: B1 VL with P28S, L29P, S61W, G94Y
notes: one-arm
In the assay with human GPC3, B10 had a Kd of 0.53 nM.

B11: GCH100-G1dh/none-Hi-Kn010G3/L0011-k0 (antibody, V domains shown)
VH: B1 VH with W54Y
VL: B1 VL
notes: one-arm
Molecule B11 displayed an equilibrium dissociation constant (Kd) in the assay with human GPC3 of 3.81 nM.

B12: H0610-G1dh/none-Hi-Kn010G3/L0212-k0 (antibody, V domains shown)
VH: B1 VH with T19K, V37I, A40P, E43Q, M48I, W54K, E62Q
VL: B1 VL with S25P, P28S, L29P, G94Y
notes: one-arm
Consider B12, for which, in the assay with human GPC3, binding was characterised by a dissociation constant (Kd) of 0.994 nM.

B13: H0610-G1dh/none-Hi-Kn010G3/L0204-k0 (antibody, V domains shown)
VH: B1 VH with T19K, V37I, A40P, E43Q, M48I, W54K, E62Q
VL: B1 VL with P28S, L29P, S61R
notes: one-arm
Regarding B13, in the assay with human GPC3, the Kd was found to be 0.727 nM.

B14: H0610-G1dh/none-Hi-Kn010G3/L0011-k0 (antibody, V domains shown)
VH: B1 VH with T19K, V37I, A40P, E43Q, M48I, W54K, E62Q
VL: B1 VL
notes: one-arm
In the assay with human GPC3, B14 gave a Kd of 2.76 nM.

B15: H0610-G1dh/none-Hi-Kn010G3/L0206-k0 (antibody, V domains shown)
VH: B1 VH with T19K, V37I, A40P, E43Q, M48I, W54K, E62Q
VL: B1 VL with P28S, L29P, G94Y
notes: one-arm
In the assay with human GPC3, B15 gave a Kd of 0.865 nM.

B16: GCH100-G1dh/none-Hi-Kn010G3/L0201-k0 (antibody, V domains shown)
VH: B1 VH with W54Y
VL: B1 VL with L29P
notes: one-arm
For B16, the dissociation constant Kd with human GPC3 was 1.37 nM.

B17: TR01H015-E2702GsKsc/GCH019-E2704sEpsc/L0000-k0 (bispecific antibody, human IgG4 S228P, kappa, N297A)
heavy 1: QVQLVESGGGLVQPGRSLRLSCAASGFTFSNAWMHWVRQAPGKGLEWVAQIKGKSNNYATYYAESVKGRFTISRADSKNSIYLQMNSLKTEDTAVYYCRYVHYSASYGVDIWGQGTTVTVSSASTKGPSVFPLAPCSRSTSESTAALGCLVKDYFPEPVTVSWNSGALTSGVHTFPAVLQSSGLYSLSSVVTVPSSSLGTKTYTCNVDHKPSNTKVDKRVESKYGPPCPPCPAPEFRGGPKVFLFPPKPKDTLMISRTPEVTCVVVDVSQEDPEVQFNWYVDGVEVHNAKTKPREEQFASTYRVVSVLTVLHQDWLNGKEYKCKVSNKGLPSSIEKTISKAKGQPREPQVYTLPPSQKEMTKNQVSLTCLVKGFYPSDIAVEWESNGQPENNYKTTPPVLDSDGSFFLYSKLTVDKSRWQEGNVFSCSVMHEALHNRYTQKSLSLSP
heavy 2: QVQLVQSGAEVKKPGASVTVSCKASGYTFTDYEMHWIRQPPGEGLEWIGAIDGKTPDTAYEQKFKGRVTLTADKSTSTAYMELSSLTSEDTAVYYCTRFYSYTYWGQGTLVTVSSASTKGPSVFPLAPCSRSTSESTAALGCLVKDYFPEPVTVSWNSGALTSGVHTFPAVLQSSGLYSLSSVVTVPSSSLGTQTYTCNVDHKPSNTKVDKRVESKYGPPCPPCPAPEFRGGPKVFLFPPKPKDTLMISRTPEVTCVVVDVSQEDPEVQFNWYVDGVEVHNAKTKPREEQFASTYRVVSVLTVLHQDWLNGKEYKCKVSNKGLPSSIEKTISKAKGQPREPQVYTLPPSQEEMTKNQVSLTCLVKGFYPSDIAVEWESNGQPENNYKTTPPVLDSDGSFFLYSKLTVDKSRWQEGNVFSCSVMHEALHNHYTQESLSLSP
light: DIVMTQSPLSLPVTPGEPASISCRSSQSLVHSNRNTYLHWYQQKPGQAPRLLIYKVSNRFSGVPDRFSGSGSGTDFTLKISRVEAEDVGVYYCGQGTQVPYTFGQGTKLEIKRTVAAPSVFIFPPSDEQLKSGTASVVCLLNNFYPREAKVQWKVDNALQSGNSQESVTEQDSKDSTYSLSSTLTLSKADYEKHKVYACEVTHQGLSSPVTKSFNRGEC
notes: common L chain format
For the molecule B17, the dissociation constant (Kd) stood at 1.64 nM with human GPC3 and 29.6 nM in assay [1].

Source of the values: patent US20250066503A1, “CELL INJURY INDUCING THERAPEUTIC DRUG FOR USE IN CANCER THERAPY” (CHUGAI SEIYAKU KABUSHIKI KAISHA, priority 2016, published 2025).
